In the assay the target is T1, AM receptor (Homo sapiens, UniProt O60895+Q16602).
T1 construct: expressed in transfected cells; host or cells: HEK293 cell line
The assay can be described thus: Intracellular cAMP concentration-increasing effect in HEK293 cell line caused to express an AM receptor.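 As to all read-outs here: cAMP inside confluent receptor-expressing cells quantified by ELISA after 15 min exposure to each peptide at 10^−8 mol/L alongside 0.5 mM IBMX.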 The class given is cell-based. The note with it: for Intracellular cAMP concentration-increasing effect (%): 10^−8 mol/L, 15 minutes, 0.5 mM IBMX; for influence of N-terminal deletion of the peptide moiety on the intracellular cAMP concentration-increasing effect: in words.

The mark [1] stands for this setting: percentage with respect to h.AM (1-52).
Setting [2] is: percentage with respect to h.AM (6-52).

Marks after values point to notes of the source that are not given here. Positions of bridges follow the written chain, without caps; N, C: chain ends.

T1 sequence (Q16602 23-461): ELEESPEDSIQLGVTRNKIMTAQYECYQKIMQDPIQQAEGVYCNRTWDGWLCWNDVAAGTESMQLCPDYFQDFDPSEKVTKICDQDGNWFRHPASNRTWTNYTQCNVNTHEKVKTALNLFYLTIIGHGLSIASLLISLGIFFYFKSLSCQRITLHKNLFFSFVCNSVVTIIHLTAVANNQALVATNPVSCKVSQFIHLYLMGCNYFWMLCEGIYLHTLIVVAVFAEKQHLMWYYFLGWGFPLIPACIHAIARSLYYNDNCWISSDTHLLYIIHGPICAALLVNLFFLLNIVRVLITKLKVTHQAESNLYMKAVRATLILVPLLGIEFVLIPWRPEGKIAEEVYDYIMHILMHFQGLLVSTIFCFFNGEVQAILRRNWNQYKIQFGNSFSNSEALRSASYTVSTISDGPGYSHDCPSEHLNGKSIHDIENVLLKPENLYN
T1 sequence (O60895 43-175): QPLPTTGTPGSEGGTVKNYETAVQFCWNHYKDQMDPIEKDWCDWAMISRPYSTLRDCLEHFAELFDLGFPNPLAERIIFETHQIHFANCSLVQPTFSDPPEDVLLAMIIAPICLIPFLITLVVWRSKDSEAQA

Take “GL-2-branched CH3O-PEG (20k)-CO-^αNH-(h.AM (6-52)) ({GL‑2‑branched CH3O‑PEG (20k)‑CO}-NNFQGLRSFGCRFGTCTVQKLAHQIYQFTDKDKDNVAPRSKISPQGY-NH2; disulfide 11-16 (inferred); ends not checked) [Compound (30)]”: the “Intracellular cAMP concentration-increasing effect (%)” value under setting [1] is 99%.

Take “CH3O-PEG (5k)-(CH2)5—CO-^αNH-(h.AM (16-52)) ({CH3O‑PEG (5k)‑(CH2)5—CO}-CRFGTCTVQKLAHQIYQFTDKDKDNVAPRSKISPQGY-NH2; disulfide 1-6 (inferred); ends not checked) [Compound (17), amide linkage-type PEG (5k) adrenomedullin derivative, reference compound]”: the “influence of N-terminal deletion of the peptide moiety on the intracellular cAMP concentration-increasing effect” value was “significantly decreased”. For the same substance, where the note is “percentage with respect to h.AM (16-52)”, the “Intracellular cAMP concentration-increasing effect (%)” value was 9***^) %.

Turning to “CH3O-PEG (20k)-(CH2)2—CH2-^αNH-(h.AM (6-52)) ({CH3O‑PEG (20k)‑(CH2)2—CH2}-NNFQGLRSFGCRFGTCTVQKLAHQIYQFTDKDKDNVAPRSKISPQGY-NH2; disulfide 11-16 (inferred); ends not checked) [Compound (21)]”, the “influence of N-terminal deletion of the peptide moiety on the intracellular cAMP concentration-increasing effect” value is recorded as “high intracellular cAMP concentration-increasing effect without the influence of the N-terminal deletion”. Also, the “Intracellular cAMP concentration-increasing effect (%)” value under setting [2] was 98*^) %.

For the substance “GL-2-branched CH3O-PEG (40k)-CH2-^αNH-(h.AM (1-52)-Gly) [Compound (36)]”, for the setting “percentage with respect to h.AM (1-52)-Gly”, the “Intracellular cAMP concentration-increasing effect (%)” value was 96****^) %.

As to “GL-2-branched CH3O-PEG (20k)-CO-^αNH-(h.AM (11-52)) ({GL‑2‑branched CH3O‑PEG (20k)‑CO}-LRSFGCRFGTCTVQKLAHQIYQFTDKDKDNVAPRSKISPQGY-NH2; disulfide 6-11 (inferred); ends not checked) [Compound (31)]”, the “Intracellular cAMP concentration-increasing effect (%)” value under setting [1] stood at 104%.

Take “CH3O-PEG (5k)-(CH2)5—CO-^αNH-(h.AM (6-52)) ({CH3O‑PEG (5k)‑(CH2)5—CO}-NNFQGLRSFGCRFGTCTVQKLAHQIYQFTDKDKDNVAPRSKISPQGY-NH2; disulfide 11-16 (inferred); ends not checked) [Compound (15), amide linkage-type PEG (5k) adrenomedullin derivative, reference compound]”: the “influence of N-terminal deletion of the peptide moiety on the intracellular cAMP concentration-increasing effect” value was “significantly decreased”. The “Intracellular cAMP concentration-increasing effect (%)” value under setting [2] is 101*^) %.

“CH3O-PEG (5k)-(CH2)2—CH2-^αNH-(h.AM (6-52)) ({CH3O‑PEG (5k)‑(CH2)2—CH2}-NNFQGLRSFGCRFGTCTVQKLAHQIYQFTDKDKDNVAPRSKISPQGY-NH2; disulfide 11-16 (inferred); ends not checked) [Compound (18)]”: the “influence of N-terminal deletion of the peptide moiety on the intracellular cAMP concentration-increasing effect” value is “suppressed the influence of N-terminal deletion”. For the same substance, the “Intracellular cAMP concentration-increasing effect (%)” value under setting [1] was found to be 90%.

On to “CH3O-PEG (5k)-(CH2)5-CO-^αNH-(h.AM (11-52)) ({CH3O‑PEG (5k)‑(CH2)5‑CO}-LRSFGCRFGTCTVQKLAHQIYQFTDKDKDNVAPRSKISPQGY-NH2; disulfide 6-11 (inferred); ends not checked) [Compound (16), amide linkage-type PEG (5k) adrenomedullin derivative, reference compound]”, for which the “influence of N-terminal deletion of the peptide moiety on the intracellular cAMP concentration-increasing effect” value is listed as “significantly decreased”. For the same substance, the “Intracellular cAMP concentration-increasing effect (%)” value (percentage with respect to h.AM (11-52)) is listed as 1**^) %.

As for “CH3O-PEG (20k)-(CH2)2—CH2-^αNH-(h.AM (16-52)) ({CH3O‑PEG (20k)‑(CH2)2—CH2}-CRFGTCTVQKLAHQIYQFTDKDKDNVAPRSKISPQGY-NH2; disulfide 1-6 (inferred); ends not checked) [Compound (23)]”, the “influence of N-terminal deletion of the peptide moiety on the intracellular cAMP concentration-increasing effect” value is listed as “high intracellular cAMP concentration-increasing effect without the influence of the N-terminal deletion”. The “Intracellular cAMP concentration-increasing effect (%)” value under setting [1] came to 97%.

These data come from US11478551B2, “Long-acting adrenomedullin derivative” (University of Miyazaki, priority 2015, dated 2022).
